T1: Bfl-1, Q16548
T1 chain: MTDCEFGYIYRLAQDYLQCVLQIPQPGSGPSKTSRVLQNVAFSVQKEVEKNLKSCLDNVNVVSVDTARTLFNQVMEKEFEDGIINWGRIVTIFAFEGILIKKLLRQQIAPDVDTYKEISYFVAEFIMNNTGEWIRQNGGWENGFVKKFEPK

T2: Mcl-1, Q07820
T2 chain: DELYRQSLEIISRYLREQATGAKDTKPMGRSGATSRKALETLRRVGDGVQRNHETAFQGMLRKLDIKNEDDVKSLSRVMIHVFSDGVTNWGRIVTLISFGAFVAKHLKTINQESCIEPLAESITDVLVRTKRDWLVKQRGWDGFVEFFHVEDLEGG


What was measured:
Experiment in all cases: peptide SPOT array, c-Myc-tagged receptor at 1 uM or 100 nM, anti-c-Myc-Cy3
Bcl-xL, Q07817 = target: Bcl-xL, Q07817
Bfl-1, Q16548 = target: T1, Bfl-1, Q16548
Mcl-1, Q07820 = target: T2, Mcl-1, Q07820

Sequence of Bcl-xL, Q07817 (Q07817 1-209): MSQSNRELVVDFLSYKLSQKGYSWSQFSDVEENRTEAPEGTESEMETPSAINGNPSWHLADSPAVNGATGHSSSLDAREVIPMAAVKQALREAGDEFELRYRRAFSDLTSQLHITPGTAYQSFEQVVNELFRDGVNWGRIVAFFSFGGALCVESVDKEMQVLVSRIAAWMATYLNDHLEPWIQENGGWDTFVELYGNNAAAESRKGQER

Row | Binder | SPOT signal as a fraction of Bim BH3's signal on the same receptor and array (Bcl-xL, Q07817) | SPOT signal as a fraction of Bim BH3's signal on the same receptor and array (Bfl-1, Q16548) | SPOT signal as a fraction of Bim BH3's signal on the same receptor and array (Mcl-1, Q07820)
1 | RLRQLGVAKKFGVLSDNFKGKRIVLV [PPAT] | 1.65 | 0.64 | 1.04
2 | QASREAGAAALRNVAQRLFENYQTQS [CCDC68] | 0.36 | 0.18 | 0.21
3 | LLDFFMVSILFSKLLDLLHKLQFVLT [PCNXL2] | 0.1 | 0.07 | 0.08
4 | GVMTQEVGQLDQDMGDDVYQQYRSLT [HUWE1] | 0.02 | 0.01 | 0.01
5 | MRSQLGKATALAIMGDKLWWADQVSE [LRP1] | 0.22 | 0.14 | 0.28
6 | YFKLFRASGDMRTNGDNYLYEIQLSS [IGF2R] | 0.41 | 0.47 | 0.43
7 | PKKKMTLSEIYQWILDNFPYYREAGS [FOXJ3] | 0.15 | 0.1 | 0.16

Second part, the binder after the results:

Row | SPOT signal as a fraction of Bim BH3's signal on the same receptor and array (Bcl-xL, Q07817) | SPOT signal as a fraction of Bim BH3's signal on the same receptor and array (Bfl-1, Q16548) | SPOT signal as a fraction of Bim BH3's signal on the same receptor and array (Mcl-1, Q07820) | Binder
8 | 1.01 | 0.47 | 0.75 | WVKSIRICTPDGKLGDSCHPLTRKVP
9 | 0.08 | 0.05 | 0.07 | WTLFVYTKGNDRMIGDDLVNSYHLLL [RBL1]
10 | 1.22 | 0.8 | 0.91 | TAGLRPGARLLRVCGQTLPSLRPEAA [SIPA1]
11 | 0.04 | 0.05 | 0.03 | NNNMDVESRTMATMLDTLASRGLLDA [SEC16A]
12 | 1.07 | 0.56 | 0.81 | WVKSIRICTPMGKLGDSCHPLTRKVP
13 | 0.07 | 0.04 | 0.04 | FGEYSGISENDILVGDDFWIPETSFI [ROS1]
14 | 1.3 | 0.69 | 0.71 | PYLSKHRADRMRRLGDFLNQESFDLA [SMPD2]
